Patent publication US20150086564A1 (CENTRE NATIONAL DE LA RECHERCHE SCIENTIFIQUE CNRS, published 2015)

Columns and labels:
[1] = molecular target: T1, recombinant human sPLA2-IIA N1A mutant (human, UniProt P14555 22-144); assay: indirect ELISA on coated sPLA2-IIA N1A (50 ng/well), one-site saturation fit, relative Kd
T1 construct: also called N1A sPLA2-IIA mutant
T1 sequence: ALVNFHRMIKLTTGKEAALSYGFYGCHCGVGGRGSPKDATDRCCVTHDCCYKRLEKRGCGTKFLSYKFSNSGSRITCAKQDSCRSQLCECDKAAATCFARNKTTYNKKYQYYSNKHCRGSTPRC

[2] = molecular target: T1, recombinant human sPLA2-IIA N1A mutant; assay: indirect ELISA on coated sPLA2-IIA N1A, anti-mouse IgG-HRP detection, one-site saturation fit
[3] = molecular target: T1, recombinant human sPLA2-IIA N1A mutant; assay: indirect ELISA on coated sPLA2-IIA N1A, streptavidin-HRP detection, one-site saturation fit

B1: monoclonal anti-sPLA2-IIA antibody #9C8 (antibody, IgG1, V domains shown)
VH: DVELVESGGGLVKLGGSLKLSCAASGFTFSSYYMSWVRQTPEKRLELVAAINSNGGSTYYPDTVKGRFTISRDNAKNTLYLQMSSLKSEDTALYYCARQGYGNFFDYWGQGTTLTVSS
VL: DVVMTQTPLSLPVSLGDQASISCRSSQSIVHSNGNTYLYWYLQKPGQSPKLLIYRVSNRFSGVPDRFSGSGSGTDFTLKISRVEAEDMGVYYCFQGTHVPRTFGGGTNLEIKR
notes: also called 9C8 antibody
Kd [1]: 1.71 nM | Kd [2]: 1.17 nM

B2: biotinylated monoclonal antibody #9C8 (antibody, mouse IgG1, V domains shown)
VH: B1 VH
VL: B1 VL
modifications: biotinylated (Pierce kit ref. 21435), sites not stated
notes: also called biotinylated #9C8
Kd [3]: 3.34 nM

B3: monoclonal anti-sPLA2-IIA antibody #6G2 (antibody, IgG1, V domains shown)
VH: QVQLQQSGAELVKPGASVKLSCKASGYTFTSYDINWVRQRPEQGLEWIGWIFPGDGSTEYNEKFKGKATLTTDKSSSTAYMQLSRLTSEDSAVYFCARWGITAFPLFDYWGQGTALTVSS
VL: DIVLTQSPASLAVSLGQRATISCRASESVDYDGDSYMNWYQQKPGQPPKLLIYAASNLESGIPARFSGSGSGTDFTLNIHPVEEEDAATYYCLQSNEAPWTFGGGTKLEIKR
notes: also called 6G2 antibody
Kd [1]: 0.124 nM | Kd [2]: 0.0817 nM

B4: biotinylated monoclonal antibody #6G2 (antibody, mouse IgG1, V domains shown)
VH: B3 VH
VL: B3 VL
modifications: biotinylated (Pierce kit ref. 21435), sites not stated
notes: also called #6G2-Biot; 6G2-biot
Kd [3]: 0.22 nM
